Experimental data published in patent US20220402995A1 (TOSOH, published 2022).

Biological target: T1, VLP2 (virus-like particles of AAV2) (AAV2, UniProt P03135 1-735; P03135 1-598; P03135 1-533)
T1 construct: Empty AAV2 capsid; background says about 60 protein molecules, VP1:VP2:VP3 = 1:1:10; Immobilised on the ELISA plate
Test: ELISA on VLP2; binding after pH 10.0 41.2°C 15 min / untreated

T1 sequence (P03135 whole entry, chain 1 of 3): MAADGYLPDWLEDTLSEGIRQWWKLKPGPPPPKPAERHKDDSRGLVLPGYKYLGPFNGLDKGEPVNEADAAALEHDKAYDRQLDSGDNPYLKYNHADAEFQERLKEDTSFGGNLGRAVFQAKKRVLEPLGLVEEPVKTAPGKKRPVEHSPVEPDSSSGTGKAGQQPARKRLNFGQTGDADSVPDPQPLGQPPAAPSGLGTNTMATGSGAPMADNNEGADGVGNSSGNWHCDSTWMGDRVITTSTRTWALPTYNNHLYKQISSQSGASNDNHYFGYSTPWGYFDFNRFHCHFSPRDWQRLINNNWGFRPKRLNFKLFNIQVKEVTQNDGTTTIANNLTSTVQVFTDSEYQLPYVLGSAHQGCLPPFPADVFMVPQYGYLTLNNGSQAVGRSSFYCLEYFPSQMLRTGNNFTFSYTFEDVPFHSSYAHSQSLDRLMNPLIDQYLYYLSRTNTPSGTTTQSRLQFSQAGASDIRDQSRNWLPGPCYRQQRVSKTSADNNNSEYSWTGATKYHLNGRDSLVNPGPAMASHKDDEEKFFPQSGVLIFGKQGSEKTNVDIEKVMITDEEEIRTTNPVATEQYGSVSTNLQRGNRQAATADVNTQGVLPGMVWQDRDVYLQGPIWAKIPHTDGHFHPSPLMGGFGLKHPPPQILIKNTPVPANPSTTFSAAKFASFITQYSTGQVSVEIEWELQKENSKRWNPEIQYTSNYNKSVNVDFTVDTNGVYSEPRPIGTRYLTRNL
T1 sequence (P03135 139-735, tags left off, chain 2 of 3): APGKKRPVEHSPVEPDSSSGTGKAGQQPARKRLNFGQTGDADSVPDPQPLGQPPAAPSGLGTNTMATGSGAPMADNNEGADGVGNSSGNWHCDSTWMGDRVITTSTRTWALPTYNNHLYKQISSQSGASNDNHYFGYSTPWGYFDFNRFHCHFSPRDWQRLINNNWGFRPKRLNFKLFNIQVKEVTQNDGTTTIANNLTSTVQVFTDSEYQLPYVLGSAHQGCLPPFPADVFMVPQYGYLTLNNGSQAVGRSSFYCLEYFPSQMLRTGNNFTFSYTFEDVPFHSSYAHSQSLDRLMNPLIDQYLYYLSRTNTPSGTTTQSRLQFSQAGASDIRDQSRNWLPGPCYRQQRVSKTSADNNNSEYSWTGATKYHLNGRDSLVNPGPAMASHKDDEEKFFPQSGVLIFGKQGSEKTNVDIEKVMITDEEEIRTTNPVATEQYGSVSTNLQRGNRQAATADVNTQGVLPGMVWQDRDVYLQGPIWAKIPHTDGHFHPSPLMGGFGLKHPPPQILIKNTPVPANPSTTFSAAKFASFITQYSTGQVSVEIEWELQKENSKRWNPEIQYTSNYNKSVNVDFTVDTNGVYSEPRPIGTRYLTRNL
T1 sequence (P03135 203-735, chain 3 of 3): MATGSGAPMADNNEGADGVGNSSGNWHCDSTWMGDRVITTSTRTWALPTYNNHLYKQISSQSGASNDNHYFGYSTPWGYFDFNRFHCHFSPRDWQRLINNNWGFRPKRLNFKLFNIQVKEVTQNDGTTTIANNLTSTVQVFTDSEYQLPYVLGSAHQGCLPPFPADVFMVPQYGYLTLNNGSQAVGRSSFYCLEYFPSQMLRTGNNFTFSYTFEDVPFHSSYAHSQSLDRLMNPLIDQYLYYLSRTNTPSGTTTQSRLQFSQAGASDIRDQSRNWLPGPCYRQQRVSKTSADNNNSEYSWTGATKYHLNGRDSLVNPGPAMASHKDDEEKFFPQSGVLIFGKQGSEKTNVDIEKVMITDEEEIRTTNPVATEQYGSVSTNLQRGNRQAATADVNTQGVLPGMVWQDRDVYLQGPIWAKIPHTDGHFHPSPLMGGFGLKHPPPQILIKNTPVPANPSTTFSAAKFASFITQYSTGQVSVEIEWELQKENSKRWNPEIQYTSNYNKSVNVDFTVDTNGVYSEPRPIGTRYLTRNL

Binder	Residual activity [%]
AAV-binding protein No. 104 (AVR8g + Tyr344Phe) (receptor) MGSAGESDQITLPKNEVQLNAYVLQEPPKGETCTFDWQLITHPRDYSGEMEGEHSQILKLSNLTPGLYEFKVIVEGQNAHSEGYVNVTVEPEPRKNRPPIAIVSPQFQEISLPTTSTVIDGSQSTDDDKIVQYHWEELKGPLREEKISEDTAILKLSKLVPGNYTFRLTVVDSDGATDSTTANLTVNKAVDHHHHHH	40.3
AAV-binding protein No. 105 (AVR8g + Arg353Cys) (receptor) MGSAGESDQITLPKNEVQLNAYVLQEPPKGETCTYDWQLITHPCDYSGEMEGEHSQILKLSNLTPGLYEFKVIVEGQNAHSEGYVNVTVEPEPRKNRPPIAIVSPQFQEISLPTTSTVIDGSQSTDDDKIVQYHWEELKGPLREEKISEDTAILKLSKLVPGNYTFRLTVVDSDGATDSTTANLTVNKAVDHHHHHH	62.1
AAV-binding protein No. 106 (AVR8g + Tyr355Cys) (receptor) MGSAGESDQITLPKNEVQLNAYVLQEPPKGETCTYDWQLITHPRDCSGEMEGEHSQILKLSNLTPGLYEFKVIVEGQNAHSEGYVNVTVEPEPRKNRPPIAIVSPQFQEISLPTTSTVIDGSQSTDDDKIVQYHWEELKGPLREEKISEDTAILKLSKLVPGNYTFRLTVVDSDGATDSTTANLTVNKAVDHHHHHH	63.8
AAV-binding protein No. 107 (AVR8g + Ser356Cys) (receptor) MGSAGESDQITLPKNEVQLNAYVLQEPPKGETCTYDWQLITHPRDYCGEMEGEHSQILKLSNLTPGLYEFKVIVEGQNAHSEGYVNVTVEPEPRKNRPPIAIVSPQFQEISLPTTSTVIDGSQSTDDDKIVQYHWEELKGPLREEKISEDTAILKLSKLVPGNYTFRLTVVDSDGATDSTTANLTVNKAVDHHHHHH	67.6
AAV-binding protein No. 108 (AVR8g + Met359Leu) (receptor) MGSAGESDQITLPKNEVQLNAYVLQEPPKGETCTYDWQLITHPRDYSGELEGEHSQILKLSNLTPGLYEFKVIVEGQNAHSEGYVNVTVEPEPRKNRPPIAIVSPQFQEISLPTTSTVIDGSQSTDDDKIVQYHWEELKGPLREEKISEDTAILKLSKLVPGNYTFRLTVVDSDGATDSTTANLTVNKAVDHHHHHH	32.4
AAV-binding protein No. 109 (AVR8g + Glu360Lys) (receptor) MGSAGESDQITLPKNEVQLNAYVLQEPPKGETCTYDWQLITHPRDYSGEMKGEHSQILKLSNLTPGLYEFKVIVEGQNAHSEGYVNVTVEPEPRKNRPPIAIVSPQFQEISLPTTSTVIDGSQSTDDDKIVQYHWEELKGPLREEKISEDTAILKLSKLVPGNYTFRLTVVDSDGATDSTTANLTVNKAVDHHHHHH	40.2
AAV-binding protein No. 110 (AVR8g + Glu360Val) (receptor) MGSAGESDQITLPKNEVQLNAYVLQEPPKGETCTYDWQLITHPRDYSGEMVGEHSQILKLSNLTPGLYEFKVIVEGQNAHSEGYVNVTVEPEPRKNRPPIAIVSPQFQEISLPTTSTVIDGSQSTDDDKIVQYHWEELKGPLREEKISEDTAILKLSKLVPGNYTFRLTVVDSDGATDSTTANLTVNKAVDHHHHHH	33.3
AAV-binding protein No. 111 (AVR8g + Lys(Glu)362Gly) (receptor, Glu362 of AVR8g replaced by Gly) MGSAGESDQITLPKNEVQLNAYVLQEPPKGETCTYDWQLITHPRDYSGEMEGGHSQILKLSNLTPGLYEFKVIVEGQNAHSEGYVNVTVEPEPRKNRPPIAIVSPQFQEISLPTTSTVIDGSQSTDDDKIVQYHWEELKGPLREEKISEDTAILKLSKLVPGNYTFRLTVVDSDGATDSTTANLTVNKAVDHHHHHH	41.1
AAV-binding protein No. 112 (AVR8g + Ser364Leu) (receptor) MGSAGESDQITLPKNEVQLNAYVLQEPPKGETCTYDWQLITHPRDYSGEMEGEHLQILKLSNLTPGLYEFKVIVEGQNAHSEGYVNVTVEPEPRKNRPPIAIVSPQFQEISLPTTSTVIDGSQSTDDDKIVQYHWEELKGPLREEKISEDTAILKLSKLVPGNYTFRLTVVDSDGATDSTTANLTVNKAVDHHHHHH	45.3
